The chains are these.
B1: Ac-(06-34-18) A2A3 (peptide)
peptide: Ac-CSAAARCLHQDLC-NH2
modifications: linker 1-7-13 via TBMB
SMILES: CC(=O)N[C@H]1CSCc2cc3cc(c2)CSC[C@H](NC(=O)[C@H](CCCNC(=N)N)NC(=O)[C@H](C)NC(=O)[C@H](C)NC(=O)[C@H](C)NC(=O)[C@H](CO)NC1=O)C(=O)N[C@@H](CC(C)C)C(=O)N[C@@H](Cc1c[nH]cn1)C(=O)N[C@@H](CCC(N)=O)C(=O)N[C@@H](CC(=O)O)C(=O)N[C@@H](CC(C)C)C(=O)N[C@H](C(N)=O)CSC3
B2: Ac-(06-34-18) A2Q3 (peptide)
peptide: Ac-CSAQARCLHQDLC-NH2
modifications: linker 1-7-13 via TBMB
SMILES: CC(=O)N[C@H]1CSCc2cc3cc(c2)CSC[C@H](NC(=O)[C@H](CCCNC(=N)N)NC(=O)[C@H](C)NC(=O)[C@H](CCC(N)=O)NC(=O)[C@H](C)NC(=O)[C@H](CO)NC1=O)C(=O)N[C@@H](CC(C)C)C(=O)N[C@@H](Cc1c[nH]cn1)C(=O)N[C@@H](CCC(N)=O)C(=O)N[C@@H](CC(=O)O)C(=O)N[C@@H](CC(C)C)C(=O)N[C@H](C(N)=O)CSC3
B3: Ac-(06-34-18) Scram 2 (peptide)
peptide: Ac-CWASPRCLHQDLC-NH2
modifications: linker 1-7-13 via TBMB
SMILES: CC(=O)N[C@H]1CSCc2cc3cc(c2)CSC[C@H](NC(=O)[C@H](CCCNC(=N)N)NC(=O)[C@@H]2CCCN2C(=O)[C@H](CO)NC(=O)[C@H](C)NC(=O)[C@H](Cc2c[nH]c4ccccc24)NC1=O)C(=O)N[C@@H](CC(C)C)C(=O)N[C@@H](Cc1c[nH]cn1)C(=O)N[C@@H](CCC(N)=O)C(=O)N[C@@H](CC(=O)O)C(=O)N[C@@H](CC(C)C)C(=O)N[C@H](C(N)=O)CSC3
B4: Ac-(06-34-18) Scram 1 (peptide)
peptide: Ac-CPSAWRCLHQDLC-NH2
modifications: linker 1-7-13 via TBMB
SMILES: CC(=O)N[C@H]1CSCc2cc3cc(c2)CSC[C@H](NC(=O)[C@H](CCCNC(=N)N)NC(=O)[C@H](Cc2c[nH]c4ccccc24)NC(=O)[C@H](C)NC(=O)[C@H](CO)NC(=O)[C@@H]2CCCN2C1=O)C(=O)N[C@@H](CC(C)C)C(=O)N[C@@H](Cc1c[nH]cn1)C(=O)N[C@@H](CCC(N)=O)C(=O)N[C@@H](CC(=O)O)C(=O)N[C@@H](CC(C)C)C(=O)N[C@H](C(N)=O)CSC3
B5: Ac-(06-34-18) Scram 4 (peptide)
peptide: Ac-CWARSPCLHQDLC-NH2
modifications: linker 1-7-13 via TBMB
SMILES: CC(=O)N[C@H]1CSCc2cc3cc(c2)CSC[C@H](NC(=O)[C@@H]2CCCN2C(=O)[C@H](CO)NC(=O)[C@H](CCCNC(=N)N)NC(=O)[C@H](C)NC(=O)[C@H](Cc2c[nH]c4ccccc24)NC1=O)C(=O)N[C@@H](CC(C)C)C(=O)N[C@@H](Cc1c[nH]cn1)C(=O)N[C@@H](CCC(N)=O)C(=O)N[C@@H](CC(=O)O)C(=O)N[C@@H](CC(C)C)C(=O)N[C@H](C(N)=O)CSC3
B6: Ac-(06-34-18) Scram 3 (peptide)
peptide: Ac-CAPWSRCLHQDLC-NH2
modifications: linker 1-7-13 via TBMB
SMILES: CC(=O)N[C@H]1CSCc2cc3cc(c2)CSC[C@H](NC(=O)[C@H](CCCNC(=N)N)NC(=O)[C@H](CO)NC(=O)[C@H](Cc2c[nH]c4ccccc24)NC(=O)[C@@H]2CCCN2C(=O)[C@H](C)NC1=O)C(=O)N[C@@H](CC(C)C)C(=O)N[C@@H](Cc1c[nH]cn1)C(=O)N[C@@H](CCC(N)=O)C(=O)N[C@@H](CC(=O)O)C(=O)N[C@@H](CC(C)C)C(=O)N[C@H](C(N)=O)CSC3
B7: Ac-(06-34-18) NMeTrp2 (peptide)
peptide: Ac-CS[NMeW]PARCLHQDLC-NH2
modifications: linker 1-7-13 via TBMB
SMILES: CC(=O)N[C@H]1CSCc2cc3cc(c2)CSC[C@H](NC(=O)[C@H](CCCNC(=N)N)NC(=O)[C@H](C)NC(=O)[C@@H]2CCCN2C(=O)[C@H](Cc2c[nH]c4ccccc24)N(C)C(=O)[C@H](CO)NC1=O)C(=O)N[C@@H](CC(C)C)C(=O)N[C@@H](Cc1c[nH]cn1)C(=O)N[C@@H](CCC(N)=O)C(=O)N[C@@H](CC(=O)O)C(=O)N[C@@H](CC(C)C)C(=O)N[C@H](C(N)=O)CSC3
B8: Ac-(06-34-18) NMeSer1 (peptide)
peptide: Ac-C[NMeS]WPARCLHQDLC-NH2
modifications: linker 1-7-13 via TBMB
SMILES: CC(=O)N[C@H]1CSCc2cc3cc(c2)CSC[C@H](NC(=O)[C@H](CCCNC(=N)N)NC(=O)[C@H](C)NC(=O)[C@@H]2CCCN2C(=O)[C@H](Cc2c[nH]c4ccccc24)NC(=O)[C@H](CO)N(C)C1=O)C(=O)N[C@@H](CC(C)C)C(=O)N[C@@H](Cc1c[nH]cn1)C(=O)N[C@@H](CCC(N)=O)C(=O)N[C@@H](CC(=O)O)C(=O)N[C@@H](CC(C)C)C(=O)N[C@H](C(N)=O)CSC3
B9: Ac-(06-34-18) NMeSer1, NMeAla4 (peptide)
peptide: Ac-C[NMeS]WP[NMeA]RCLHQDLC-NH2
modifications: linker 1-7-13 via TBMB
SMILES: CC(=O)N[C@H]1CSCc2cc3cc(c2)CSC[C@H](NC(=O)[C@H](CCCNC(=N)N)NC(=O)[C@H](C)N(C)C(=O)[C@@H]2CCCN2C(=O)[C@H](Cc2c[nH]c4ccccc24)NC(=O)[C@H](CO)N(C)C1=O)C(=O)N[C@@H](CC(C)C)C(=O)N[C@@H](Cc1c[nH]cn1)C(=O)N[C@@H](CCC(N)=O)C(=O)N[C@@H](CC(=O)O)C(=O)N[C@@H](CC(C)C)C(=O)N[C@H](C(N)=O)CSC3
B10: Ac-(06-34-18) NMeAla4 (peptide)
peptide: Ac-CSWP[NMeA]RCLHQDLC-NH2
modifications: linker 1-7-13 via TBMB
SMILES: CC(=O)N[C@H]1CSCc2cc3cc(c2)CSC[C@H](NC(=O)[C@H](CCCNC(=N)N)NC(=O)[C@H](C)N(C)C(=O)[C@@H]2CCCN2C(=O)[C@H](Cc2c[nH]c4ccccc24)NC(=O)[C@H](CO)NC1=O)C(=O)N[C@@H](CC(C)C)C(=O)N[C@@H](Cc1c[nH]cn1)C(=O)N[C@@H](CCC(N)=O)C(=O)N[C@@H](CC(=O)O)C(=O)N[C@@H](CC(C)C)C(=O)N[C@H](C(N)=O)CSC3
B11: 06-34-01 (peptide)
peptide: ACSWPARCVHQDLCA
modifications: linker 2-8-14 via TBMB; not fully specified (N-terminus, C-terminus)
B12: 06-34-17 (01 + 04) (peptide)
peptide: ACSWPARCMHQDLCA
modifications: linker 2-8-14 via TBMB; not fully specified (N-terminus, C-terminus)
B13: 06-34-05 (peptide)
peptide: ACRWPARCLHQDLCA
modifications: linker 2-8-14 via TBMB; not fully specified (N-terminus, C-terminus)
B14: 06-34-04 (peptide)
peptide: ACRWPARCMHQDLCA
modifications: linker 2-8-14 via TBMB; not fully specified (N-terminus, C-terminus)
B15: 06-34-02 (peptide)
peptide: ACRWPARCTHQDLCA
modifications: linker 2-8-14 via TBMB; not fully specified (N-terminus, C-terminus)
B16: 06-34-03 (01 + 02) (peptide)
peptide: ACSWPARCTHQDLCA
modifications: linker 2-8-14 via TBMB; not fully specified (N-terminus, C-terminus)
B17: 06-34-19 (01 + 05 + R/K) (peptide)
peptide: ACSWPAKCLHQDLCA
modifications: linker 2-8-14 via TBMB
notes: also called WPAK peptide
B18: Ac-(06-34-18) Aze3 (peptide)
peptide: Ac-CSW[Aze]ARCLHQDLC-NH2
modifications: linker 1-7-13 via TBMB
SMILES: CC(=O)N[C@H]1CSCc2cc3cc(c2)CSC[C@H](NC(=O)[C@H](CCCNC(=N)N)NC(=O)[C@H](C)NC(=O)[C@@H]2CCN2C(=O)[C@H](Cc2c[nH]c4ccccc24)NC(=O)[C@H](CO)NC1=O)C(=O)N[C@@H](CC(C)C)C(=O)N[C@@H](Cc1c[nH]cn1)C(=O)N[C@@H](CCC(N)=O)C(=O)N[C@@H](CC(=O)O)C(=O)N[C@@H](CC(C)C)C(=O)N[C@H](C(N)=O)CSC3
notes: also called Ac-06-34-18(TMB)-NH2 Aze3
B19: Ac-(06-34-18) Aib3 (peptide)
peptide: Ac-CSW[Aib]ARCLHQDLC-NH2
modifications: linker 1-7-13 via TBMB
SMILES: CC(=O)N[C@H]1CSCc2cc3cc(c2)CSC[C@H](NC(=O)[C@H](CCCNC(=N)N)NC(=O)[C@H](C)NC(=O)C(C)(C)NC(=O)[C@H](Cc2c[nH]c4ccccc24)NC(=O)[C@H](CO)NC1=O)C(=O)N[C@@H](CC(C)C)C(=O)N[C@@H](Cc1c[nH]cn1)C(=O)N[C@@H](CCC(N)=O)C(=O)N[C@@H](CC(=O)O)C(=O)N[C@@H](CC(C)C)C(=O)N[C@H](C(N)=O)CSC3

This is an account of results in patent US10800813 (Bicycle, dated 2020).

Numbered stars: 1 amine (or outer) side, 2 acyl side, 3 side chain; on linkers, the order of the positions; unused ones are H or OH. Bridge positions count the residues as written; N and C are the ends. Square brackets hold non-standard residues; d marks the D form. Ends that are not written are not given here. NMeW = CN[C@@H](Cc1c[nH]c2ccccc12)C(=O)O; TBMB = c1c(C[*:1])cc(C[*:3])cc1C[*:2]; NMeS = CN[C@@H](CO)C(=O)O; NMeA = CN[C@@H](C)C(=O)O; Aze = O=C(O)[C@@H]1CCN1; Aib = CC(C)(N)C(=O)O

The term Ki denotes the equilibrium dissociation constant of an inhibitor or competing ligand from its target. By IC50 is commonly meant the concentration needed to halve the response being measured. Lower therefore signals inhibition by little substance.

T2 sequence (P14272 391-638 limits assumed): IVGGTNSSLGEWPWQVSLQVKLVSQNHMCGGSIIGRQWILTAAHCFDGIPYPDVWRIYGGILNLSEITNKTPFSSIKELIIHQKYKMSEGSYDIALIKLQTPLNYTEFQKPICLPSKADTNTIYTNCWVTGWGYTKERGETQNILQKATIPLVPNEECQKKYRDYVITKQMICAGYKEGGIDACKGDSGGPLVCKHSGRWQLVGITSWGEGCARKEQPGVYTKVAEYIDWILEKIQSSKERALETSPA

The target in one test is T1, human plasma Kallikrein (human, UniProt P03952 20-638, limits assumed).
T1 construct: also called hPK; human PK
T1 sequence (P03952 20-638 limits assumed): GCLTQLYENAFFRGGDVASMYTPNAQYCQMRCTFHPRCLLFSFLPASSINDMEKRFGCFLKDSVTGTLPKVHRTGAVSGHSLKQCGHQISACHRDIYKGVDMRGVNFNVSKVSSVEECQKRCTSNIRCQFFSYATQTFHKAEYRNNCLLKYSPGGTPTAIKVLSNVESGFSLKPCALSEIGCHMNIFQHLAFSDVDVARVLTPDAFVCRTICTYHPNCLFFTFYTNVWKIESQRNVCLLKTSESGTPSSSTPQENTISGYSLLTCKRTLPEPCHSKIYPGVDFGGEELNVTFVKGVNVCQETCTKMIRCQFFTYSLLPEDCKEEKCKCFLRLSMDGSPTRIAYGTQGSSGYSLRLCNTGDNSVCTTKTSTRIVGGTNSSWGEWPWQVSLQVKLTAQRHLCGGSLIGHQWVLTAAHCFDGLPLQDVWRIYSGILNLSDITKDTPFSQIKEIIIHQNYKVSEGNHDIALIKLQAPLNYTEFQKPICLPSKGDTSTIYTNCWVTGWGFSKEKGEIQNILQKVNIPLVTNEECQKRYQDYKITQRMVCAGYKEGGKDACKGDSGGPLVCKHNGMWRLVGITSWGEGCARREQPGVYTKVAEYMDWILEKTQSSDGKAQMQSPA
The experiment in a line: enzyme inhibition assay.
For the molecule B1, the inhibition constant (Ki) was determined as 18500 nM. Same read-out and setting: to B2 belongs 15800 nM; to B3, 11400 nM; to B4, 1090 nM. On to B5, for which the Ki is 67500 nM. The same measure, in the same setting: to B6 belongs 1890 nM.

A further test has as its target T1, human plasma Kallikrein. Briefly: enzyme inhibition assay. The source holds these as a separate data set.
The molecule B7 yielded a Ki of 228 nM. That is a sub-micromolar value. Same read-out and setting: to B8 belongs 0.5 nM. Same read-out and setting: with B9 the figure was 444 nM; with B10, 343 nM.

The next test addresses T1, human plasma Kallikrein. The experiment in a line: enzyme inhibition assay. This is another data set of the same source.
For the molecule B11, the half-inhibitory concentration (IC50) was 0.15 nM.

Molecule B12 yielded an IC50 of 0.073 nM. On to B13, for which it took 0.076 nM to reach half-maximal inhibition (IC50). This IC50 and that of the molecule before are within 1.5-fold of each other. Still for that read-out and setting: to B14 belongs 0.075 nM. On the same count and under the same terms, with B15 the figure was 0.16 nM; with B16, 0.082 nM.

A further test concerns the target T2, Rat plasma Kallikrein (rat, UniProt P14272 391-638, limits assumed).
T2 construct: domain: catalytic domain; also called rPK; rat PK
Briefly: enzyme inhibition assay.
Consider B11, for which half-maximal inhibition (IC50) was put at 6.12 nM. Same read-out and setting: with B12 the figure was 0.44 nM. The same measure, in the same setting: to B13 belongs 0.62 nM; to B17, 4.67 nM; to B14, 0.56 nM. Same read-out and setting: to B15 belongs 1.09 nM; to B16, 0.87 nM.

For the next test, the target named is T1, human plasma Kallikrein. The experiment in a line: enzyme inhibition assay. The source holds these as a separate data set.
As for B1, the “fold reduction of binding against Ac-06-34-18(TMB)-NH2” value is about 100000 fold.

Consider B2, for which the “fold reduction of binding against Ac-06-34-18(TMB)-NH2” value was about 100000 fold. Consider B18, for which the “fold increase in affinity against wildtype” value is 3 fold.

The target in a further test is T1, human plasma Kallikrein. The experiment in a line: enzyme inhibition assay. The source holds these as a separate data set.
B19 displayed a Ki of 1.2 nM. Same read-out and setting: to B18 belongs 0.06 nM.
